This note sets out measurements from patent US20200254116A1.

Non-standard residues stand in square brackets, D forms with d. No end group written: not given here. *: point of attachment. Phe(4-I) = N[C@@H](Cc1ccc(I)cc1)C(=O)O; Fmoc = O=C(OCC1c2ccccc2-c2ccccc21)*

Substrate in the test: FBS (fetal bovine serum) proteins
The test can be described thus: FBS protein binding assay: 25 uM agent in 100% FBS, Amicon 10 K cutoff ultrafiltration, fluorescence of fractions.

B1: 4Iphf-HN18-IR800 (peptide)
peptide: Fmoc-[Phe(4-I)]LPNSNHIK(IRDye800)QGL
On to B1, for which the percent bound is 70%.

B2: HN1-IR800 (peptide)
peptide: TSPLNIHNGQK(IRDye800)L
For B2, the percent bound was determined as 52%.
